Laboratory results as given in the supplement of paper PMC11780869.

System: Bacillus subtilis
Experiment: cleaved RNA product abundance (RNA/gDNA barcode ratio) relative to median wild-type variant (ratio to wild type); higher = more accumulation of the downstream cleavage product
How it was run: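 Reporter mRNAs based on truncated aprE or tetM carried barcoded, mutagenized RNase Y cleavage-site windows built from oligos with a 9% error rate and were integrated into the B. subtilis chromosome. Cultures grew in LB at 37°C from OD600 0.0003 to 0.3. Cleaved RNA was gel-selected, reverse transcribed and barcode-sequenced together with genomic DNA barcodes, and UMIs were collapsed. Cleaved product abundance is the per-construct ratio of RNA to gDNA barcodes, scaled to the median of constructs carrying the unmutated site.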

[1] = experiment (reporter, strain, medium): exp 4a: truncated aprE reporter, strain BJT201 with 2% xylose (RNase J1 expressed), cleavage site: cggR-gapA (positions -7 to +36 mutated)
[2] = experiment (reporter, strain, medium): exp 2b: truncated aprE reporter, strain BJT200, cleavage site: cggR-gapA (positions -7 to +36 mutated)
[3] = experiment (reporter, strain, medium): exp 8a: truncated aprE reporter, strain BJT201 with 2% xylose (RNase J1 expressed), cleavage site: glnRA (positions -5 to +31 mutated)

| Sequence | cleaved RNA product abundance [1] | cleaved RNA product abundance [3] | further results |
| --- | --- | --- | --- |
| ACAGACGAAGGAGCCGCATAGAAGTTATTAAGGAATGAATAATTCCTCAATATAAATATCTCTCACTTATTTAAA | 0.893 |  |  |
| ACAGACGAAGGAGCCGCGAAGAAGTTTTTAAGGGATGAATAATCCCTCAATATAAATATCTCTCACTTATTTAAA | 0.418 |  |  |
| ACAGACGAAGGAGCCGCAAAGAAATTATTAAGGGATGTATAATCCCTCAATATAAATATCTCTCACTTATTTAAA | 0.789 |  | cleaved RNA product abundance [2]: 0.711 |
| CGACATGTCCCGCTTCTTTCATTAATCCGTTAGCAACTTTTTTGCTATATACATATACCTTTTAAGAGGAGGAAT |  | 2.12 |  |
| ACAGACGAAGGAGCCGCAAAGAAGTTATTAAGGGATGAAAAATCCCTCAATATAAATAGCTCTCACTTATTTAAA | 0.554 |  |  |
| CGACATGTCCCGCTTCTTTCATTATTCCGTTAGCAACTGTTTTGCTATATACATATACCTTTTAAGAGGAGGAAT |  | 1.59 |  |
| CGACATGTCCCGCTTCTTTCATTAATCCGTTAACAACTGTTTTGCTATATACATTTACCCTTTAAGAGGAGGAAT |  | 0.198 |  |
| ACAGACGAAGGAGCCGCAAAGAAGTTATTAAGGGATGAATAATCCCTCTCTATAAATATCTCTCACTTATTTAAA | 0.372 |  |  |
| CGACATGTCCCGCTTCTTTCATTAAACCGTTAGCAACTGTTTTACTATATACATTTACCTTTTAAGAGGAGGAAT |  | 0.458 |  |
| ACAGACGAAGGAGCCGCAAAGATGTTATTAAGGGATGAATACTCCCTCAATATAAATATCTCTCACTTATTTAAA |  |  | cleaved RNA product abundance [2]: 0.648 |
| CGACATGTCCCGCTTCTTTCATTAATCCGATAGCAACTGTTTTTCTATATACATTTACCTTTTAAGAGGAGGAAT |  | 0.413 |  |
| ACAGACGAAGGAGCCGCAAAGAAGTTATTACGGGATGAAAAATCCCTCAATATAAATATCTCTCACTTATTTAAA | 0.321 |  | cleaved RNA product abundance [2]: 0.223 |
| ACAGACGAAGGAGCCGCAAAGAAGGTATTAAGGGATGAATAATCGCTCAATATAAATATCTCTCACTTATTTAAA |  |  | cleaved RNA product abundance [2]: 0.176 |
| ACAGACGAAGGAGCCGCGAAGAAGTTATTAAGGGATGAATAATCACTCAATATAAATATCTCTCACTTATTTAAA | 0.122 |  |  |
| ACAGACGAAGGAGCCGCAAACAAGTTATTAAGGGATGAAAAATCCCTCAATATAAATATCTCTCACTTATTTAAA | 0.359 |  |  |
| ACAGACGAAGGAGCCGCAAAGAAGTTAATAAGGGATGAATAATGCCTCAATATAAATATCTCTCACTTATTTAAA | 0.124 |  | cleaved RNA product abundance [2]: 0.121 |

| Sequence | cleaved RNA product abundance [1] | cleaved RNA product abundance [3] | further results |
| --- | --- | --- | --- |
| ACAGACGAAGGAGCCGCAAAGTACTTATTAAGGGATGAATAATCCCTCAATATAAATATCTCTCACTTATTTAAA | 0.803 |  | cleaved RNA product abundance [2]: 0.437 |
| ACAGACGAAGGAGCCGCAAAGAAGTTATTAAGGGATGAATACTCCCTCAATTTAAATATCTCTCACTTATTTAAA | 0.167 |  |  |
| CGACATGTCCCGCTTCTTTCATTATTCCGTTAGCAACTGTTTTCATAAATACATTTACCTTTTAAGAGGAGGAAT |  | 0.375 |  |
| CGACATGTCCCGCTTCTTTCATTAATCCGTTAGTAACTGTTTTGCTATATACATTTACGTTTTAAGAGGAGGAAT |  | 0.581 |  |
| ACAGACGAAGGAGCCGCAAAGAAGTAAGTAAGGGATGAATAATCCCTCAATATAAATATCTCTCACTTATTTAAA | 0.378 |  | cleaved RNA product abundance [2]: 0.212 |
| ACAGACGAAGGAGCCGCAAAGAAGTTATGAATGGATGAATAATCCCTCAATATAAATATCTCTCACTTATTTAAA | 0.147 |  |  |
| CGACATGTCCCGCTTCTTTCATTAATCCGTTAGAAACTTTTTTGCTATATACATTTACCTTTTAAGAGGAGGAAT |  | 0.287 |  |
| CGACATGTCCCGCTTCTTTCATTAATCCGTTATGAACTGTTTTGCTATATACATTTACCTTTTAAGAGGAGGAAT |  | 0.252 |  |
| ACAGACGAAGGAGCCGCAAAGAAATTATTAAGGGATGAATAATCTCTCAATATAAATATCTCTCACTTATTTAAA | 0.476 |  |  |
| CGACATGTCCCGCTTCTTTCATTAATCCGTTAGCAACTGTTTTGCTATTTACATATACCTTTTAAGAGGAGGAAT |  | 0.317 |  |
| ACAGACGAAGGAGCCGCAAAGAAGTTATTATGGGATGAATAATCCCTCAATATACATATCTCTCACTTATTTAAA | 0.538 |  |  |
| CGACATGTCCCGCTTCTTTCATTAATCCGTTAGCAACTTTTTTGCTATATACATTTACCTTTTAAGAGGAGGAAT |  | 1.24 |  |
| ACAGACGAAGGAGCCGCATAGAAGTTATTAAGGGATGAATAATCCCTCAATTTAAATATCTCTCACTTATTTAAA |  |  | cleaved RNA product abundance [2]: 0.195 |
| CGACATGTCCCGCTTCTTTCATTAATCCGTTATAAACTGTTTTGCTATATACATTTACCTTTTAAGAGGAGGAAT |  | 0.276 |  |
| ACAGACGAAGGAGCCGCAAAGAAGTTATTAAGGGATGAATAATCCCTCAATATCAATATCTCTCACTTATTTAAA | 0.103 |  | cleaved RNA product abundance [2]: 0.126; cleaved RNA product abundance (experiment (reporter, strain, medium): exp 6: tetM reporter, strain 168, cleavage site: cggR-gapA (positions -7 to +36 mutated)): 0.216 |
